Test system: MS2 coat protein
Assay: apparent KD of MS2 coat protein; designed switch direction (-1 OFF switch, 1 ON switch): -1; higher = weaker reporter binding
Method in brief: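 An oligonucleotide input, 200 uM small-molecule ligand, or no input was present during titration of SNAP-549-labelled MS2 coat protein, which was doubled from 0.7 or 1.5 nM to 3 µM. Designed RNA switches had been transcribed on Illumina chips by stalled E. coli RNA polymerase. Apparent KD per design is the median over clusters of curves fitted to normalised cluster fluorescence.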

[1] = Eterna round: R95, input ligand: microRNA oligo, concentration not stated
[2] = input ligand: microRNA oligo, concentration not stated
[3] = Eterna round: R95, input ligand: FMN 200 uM
[4] = Eterna round: R95, input ligand: none

| Sequence | apparent KD of MS2 coat protein [1] | apparent KD of MS2 coat protein (input ligand: FMN 200 uM) | apparent KD of MS2 coat protein [2] | apparent KD of MS2 coat protein (input ligand: none) | apparent KD of MS2 coat protein [3] | apparent KD of MS2 coat protein [4] |
| --- | --- | --- | --- | --- | --- | --- |
| UUCCUGUCAGGAUAUGACUAGAUGCACGAAAGUGUUUUUAGUUAGAAGGGACAUGAGGAUCACCCAUGUAGUCC [Bring Us a Shrubbery-19] (puzzle: Exclusion 4) | 21.9 nM |  |  |  |  |  |
| GCGGACUCGAUCGUGAGAUCGGAGACAUGAGGAUCACCCAUGUAGGAUAUCGAUUGCUUUGCAGUCGAGAAGGGCGUGGUCCGC [JL denovo 17] (Eterna round: R96, puzzle: Exclusion NG 3) |  | 152 nM | 98.1 nM | 157 nM |  |  |
| CUUUUGUGAGGAUAUCAGUAGUAAUACAAUAGUAUUACUAUUGAGAAGGCACAUGAGGAUCACCCAUGUUCCUC [Ex4 344 Omei mod 6] (puzzle: Exclusion 4) | 38 nM |  |  |  |  |  |
| GCGCCAUCGUGAGAUGGCGUAAUUACAUGAGGAUCACCCAUGUAGGAUAUCGAUUGCUUUGCAGUCGAGAAGGGCGUGAUAAUU [JL ENG3 3.70] (Eterna round: R96, puzzle: Exclusion NG 3) |  | 77.7 nM | 52.5 nM | 75.5 nM |  |  |
| CUAGCUUCGGCUAGUACAAGCUUUUUGCUCGUCUUAUUAACAUGAGGAUCACCCAUGUACAAGAGACCUCAUGUAUU [Sensor v3 - turn-off variant 2 - 10] (puzzle: Sensor v3, turn-off variant 2) | 14.6 nM |  |  |  | 188 nM | 249 nM |
| AACAGUCUGGAGGAUAUGCUGGAUUAAUAUCUGGCAGAAGGCUUGACAUGAGGAUCACCCAUGUAAAUACUACC [Omei Ex6 A3] (Eterna round: R97, puzzle: Exclusion 6) |  | 25.9 nM |  | 20.8 nM |  |  |
| UAUUAUCAAGCUAGAUCCCACAUGAGGAUCACCCAUGUGCUCGUCUUAAUUCCAGAAUUACUGGGCUCUCGUCUUAU [JR_STOV1_Sub091] (Eterna round: R97, puzzle: Sensor, turn-off variant 1) |  | 45.5 nM |  | 45.1 nM |  |  |
| CCGGAUAUGCAGGAUAUCGUAACGGAAACGUUACGAGAAGGGUAUACAUGAGGAUCACCCAUGUGUCCUACCGG [Mat - Exclusion 6 - Eli Mod - D86] (puzzle: Exclusion 6) | 21.1 nM |  |  |  |  |  |
| GGCAUGCAAGGAUAUACUUGCAGUGAUAUUCGAUAAAGUCUACUUGAGGAUCACCCAAGUAGAAGGUGCAUGCC [Exclusion 2 (Mod6 JL EX2 4.74 Vienna UCT mod of Mamaed)] (Eterna round: R97, puzzle: Exclusion 2) |  | 35 nM |  | 25.8 nM |  |  |
| UCGACUACAGUAGGAUAUGUAGGAUAUGUGGUUGAGGAUCACCCAACCACUUCAACGACAGAAGGACAGAAGGACUGACAUCGU [pwkr exNG2 2xFMN 1xF5.4] (Eterna round: R96, puzzle: Exclusion NG 2) |  | 21.5 nM | 14.2 nM | 20.4 nM |  |  |
| AAACCCUGAGGAUAUACAUAACAACAAAUCCUCACGUGCCAACAUGAGGAUCACCCAUGUAGAAGGCAGGCCAA [Mod R3 Insanara 5 - Jieux - Exclusion 2] (Eterna round: R97, puzzle: Exclusion 2) |  | 49.2 nM |  | 15.8 nM |  |  |
| UUUCAACAUGAGGAUCACCCAUGUCAGGAUAUCAUUUAGCUCAUACACUUACCAUCAUUGAGAAGGGACAUGCU [Colors] (Eterna round: R97, puzzle: Exclusion 1) |  | 15.7 nM |  | 19 nM |  |  |
| ACAUGAGGAUCACCCAUGUUUGGCUGGUCCUCUCCGGCUGUCGAGGAUAUAGUACGGUAUCCGCGCUAGAAGGUGAGGGCCGGC [Aenatbe] (Eterna round: R96, puzzle: Exclusion NG 3) |  | 16.4 nM | 10.1 nM | 17.1 nM |  |  |
| AUAGAGUCAGGAUAUACAGGUGGAGGAAAGCAGCAUAAGGAGUAGAAGGGACAUGAGGAUCACCCAUGUAAGUG [JR_Exclu4_Sub058] (puzzle: Exclusion 4) | 62.3 nM |  |  |  | 47.4 nM | 60.2 nM |
| GUGUACGAAGGAUAUACAUGAGGAUCACCCAUGUGAAUAAGAUAGAAUAAGAUAAAGUGUAGAAGGUCGAGUGU [Excluse me!!! 7 - Jieux - Exclusion 3] (puzzle: Exclusion 3) | 27.1 nM |  |  |  |  |  |
| GGAAGGCGAGGAUAUACAAUAAAGAAAGAGAAAGACGUGAGACAUGAGGAUCACCCAUGUAGAAGGUGCGGAGA [AK-MS2ROC-r4-exclusion2-13] (Eterna round: R97, puzzle: Exclusion 2) |  | 37.3 nM |  | 34.3 nM |  |  |
| AAGAGGAUCGGAGGAUAUGGAGCUGAAACGGCGCUAGAAGGCCGUCCAGUGUAACAUGAGGAUCACCCAUGUAGGGACCUCUAA [EX ng 1 4.1] (Eterna round: R96, puzzle: Exclusion NG 1) |  | 314 nM | 65.5 nM | 102 nM |  |  |
| GCAGCAUAGUCGGAAUACGACAUACAUGAGGAUCACCCAUGUCAGGAUAUGGUCUGGAUUACAGGCCAGAAGGGACAAAGCUGC [Eli exng3 - 007] (Eterna round: R96, puzzle: Exclusion NG 3) |  | 24.8 nM | 17.1 nM | 20.1 nM |  |  |
| ACAUGUCAUCGAGGAUAUUGGACACAUGAGGAUCACCCAUGUACUCGGAGGCUCUACUAUGAGUUCGAGAAGGCGAUGUACAUG [Ex NG2 #75] (Eterna round: R96, puzzle: Exclusion NG 2) |  | 355 nM | 45.4 nM | 49.9 nM |  |  |
| AGAGUGCUGCGAGGAUAUACAUGAGGAUCACCCAUGUUUUCCUGUGAGGCAAAGCCUCACAGGAUGUAGAAGGCGCAGUACUCA [Mat - Exclusion NG 2 - Mod of JL - D39] (Eterna round: R96, puzzle: Exclusion NG 2) |  | 13.9 nM | 11.1 nM | 17.7 nM |  |  |
| AUUAAGCAGCAGGAUAUAAGUAUCUGAUGGUGGUUAGAAGGGCUGACAUGAGGAUCACCCAUGUGCUCUUCGUG [Tieruseres] (puzzle: Exclusion 6) | 10.1 nM |  |  |  | 16.1 nM | 14.1 nM |
| UGAUGGAGGCAGGAUAUUUUGAUGGAUACGAUAAAAGAAGGGCUGACAUGAGGAUCACCCAUGUGGAUAGCUCA [Eternabot (L1) Solution 39] (Eterna round: R97, puzzle: Exclusion 6) |  | 17.8 nM |  | 14.4 nM |  |  |
| UCUAUAGGGCUGCAGGCUUACAUGAGGAUCACCCAUGUAUAGGGUUUUCUACGCGCUCGUCAUCAUACAUUAAUUCG [Eternabot (L1) Solution 31] (Eterna round: R97, puzzle: Sensor, turn-off variant 1) |  | 44 nM |  | 53.1 nM |  |  |
| GAUCAACAUGAGGAUCACCCAUGUUAGGAUAUGUCCACGUGGCAUAGGACCACGUGUGGCAGAAGGAGCGUUAA [Eternabot (L2) Solution 52] (Eterna round: R97, puzzle: Exclusion 1) |  | 37.9 nM |  | 37.4 nM |  |  |
| AGAAGUAGCAACCGAUCCUACAUGAGGAUCACCCAUGUAGCAAGACGUGCACGCGAAGCUCGUCAGACUACCAGAUG [salish99_TOv1_r3_022] (puzzle: Sensor v3, turn-off variant 1) | 210 nM |  |  |  | 216 nM | 168 nM |
| UAUUAGCAAGCGAGUCUUCACAUGAGGAUCACCCAUGUGCUCGUCUUAUAAGGUACUGUGACGAAAGUCACGGUACC [Eli 91 v32] (Eterna round: R97, puzzle: Sensor, turn-off variant 1) |  | 15.4 nM |  | 14.8 nM |  |  |
| UAAAAGCUAGGAUAUACAUGAGGAUCACCCAUGUCACGGGUCCACUCAUCCUAUACGUGUAGAAGGAGCGACCC [Ceriza] (puzzle: Exclusion 3) | 20 nM |  |  |  |  |  |
| GCGCCAUCGUGAGAUGGCGUAACUACAUGAGGAUCACCCAUGUAGGAUAUCGAUUGCUUUGCAGUCGAGAAGGGCAAGGGAUUU [JL ENG3 3.88] (Eterna round: R96, puzzle: Exclusion NG 3) |  | 25.8 nM | 14.7 nM | 20.4 nM |  |  |
| GCUGGUCGAGGAUAUAUAUGACGUGCUUCGGCACGAAGGUCACAUGAGGAUCACCCAUGUAGAAGGUGACCAGC [E2/9-B1] (Eterna round: R97, puzzle: Exclusion 2) |  | 110 nM |  | 42 nM |  |  |
| CUAAUUCAAGGAUAUACAUGAGGAUCACCCAUGUGAGGGAGUGACAAGUUGUCGGGAUGUAGAAGGUGACCUAG [Eternabot (L2) Solution 36] (Eterna round: R97, puzzle: Exclusion 3) |  | 417 nM |  | 411 nM |  |  |

— the supplement of paper PMC9170038
